Target: NadRh from M. tuberculosis (NadR homolog) (M. tuberculosis)
Assay: SEC

NadRh from M. tuberculosis (NadR homolog) (natural protein)
stoichiometry N: 2

Reference: article PMC3944813
